The data set concerns the molecule itself. As to the kind of experiment: negative-stain transmission electron microscopy; purified RHDV2 VP60 protein alone adsorbed on glow-discharged formvar/carbon copper grids, stained with 1% uranyl acetate, imaged at 300 keV.

B1: RHDV2 VP60 capsid protein (natural protein)
chain: EGKARAAPQGETAGTATTASVPGTTTDGMDPGVVATTSVVTTENASTSIATAGIGGPPQQVDQQETWRTNFYYNDVFTWSVADAPGNILYTVQHSPQNNPFTAVLSQMYAGWAGGMQFRFIVAGSGVFGGRLVAAVIPPGIEIGPGLEVRQFPHVVIDARSLEPVTITMPDLRPNMYHPTGNPGLVPTLVLSVYNNLINPFGGSTSAIQVTVETRPSEDFEFVMIRAPSSKTVDSISPADLLTTPVLTGVGTDNRWNGEIVGLQPVPGGFSTCNRHWNLNGSTFGWSSPRFAAIDHDGGNASFPGSSSSNVLELWYASAGSATDNPISQIAPDGFPDMSFVPFSGSTIPTAGWVGFGGIWNSNNGAPFVTTMQAYELGFATGAPSNPQPTTTTSGAQIVAKSIYGVANGINQTTAGLFVMASGVISTPNSSAITYTPQPNRIVNAPGTPAAAPIGKNTPIMFASVVRRTGDINAEAGSTNGTQYGAGSQPLPVTVGLSLNNYSSALMPGQFFVWQLNFASGFMELGLSVDGYFYAGTGALATLIDLSELVDIRPVGPRPSTSTLVYNLGGTTNGFSYV
notes: VP60 capsid protein of rabbit hemorrhagic disease virus 2 (RHDV2); the tag was removed after purification; After TEV cleavage a single G of the ENLYFQG site probably stays in front of E2 (surmised); Self-assembles into virus-like particles of ~30 nm; also called RHDV2 VLP; RHDV2 capsid protein; source: Baculovirus expression system (GenScript), purified, tag removed; not shown: His6, N-terminal, …
B1: the binding result was “binds”.

These data come from paper PMC10303064, “Sulfated Lactosyl Archaeol Archaeosome-Adjuvanted Vaccine Formulations Targeting Rabbit Hemorrhagic Disease Virus Are Immunogenic and Efficacious” (Vaccines, 2023).
